Sequences and labels used below:
B1: FLAG-tagged N-TIMP-3 (N-terminal domain of TIMP-3) (domain or fragment, UniProt P35625 24-143, looked up)
chain: CTCSPSHPQDAFCNSDIVIRAKVVGKKLVKEGPFGTLVYTIKQMKMYRGFTKMPHVQYIHTEASESLCGLKLEVNKYQYLLTGRVYDGKMYTGLCNFVERWDQLTLSQRKGLNYRYHLGC
B2: Receptor-associated protein (RAP), recombinant His-tagged (natural protein, UniProt P30533 35-357, looked up)
chain: YSREKNQPKPSPKRESGEEFRMEKLNQLWEKAQRLHLPPVRLAELHADLKIQERDELAWKKLKLDGLDEDGEKEARLIRNLNVILAKYGLDGKKDARQVTSNSLSGTQEDGLDDPRLEKLWHKAKTSGKFSGEELDKLWREFLHHKEKVHEYNVLLETLSRTEEIHENVISPSDLSDIKGSVLHSRHTELKEKLRSINQGLDRLRRVSHQGYSTEAEFEEPRVIDLWDLAQSANLTDKELEAFREELKHFEAKIEKHNHYQKQLEIAHEKLRHAESVGDGERVSRSREKHALLEGRTKELGYTVKKHLQDLSGRISRARHNEL
B3: FLAG-tagged ADAMTS-5 lacking the C-terminal thrombospondin domain (ADAMTS5-2) (domain or fragment, UniProt Q9UNA0 262-874, looked up)
chain: SISRARQVELLLVADASMARLYGRGLQHYLLTLASIANRLYSHASIENHIRLAVVKVVVLGDKDKSLEVSKNAATTLKNFCKWQHQHNQLGDDHEEHYDAAILFTREDLCGHHSCDTLGMADVGTICSPERSCAVIEDDGLHAAFTVAHEIGHLLGLSHDDSKFCEETFGSTEDKRLMSSILTSIDASKPWSKCTSATITEFLDDGHGNCLLDLPRKQILGPEELPGQTYDATQQCNLTFGPEYSVCPGMDVCARLWCAVVRQGQMVCLTKKLPAVEGTPCGKGRICLQGKCVDKTKKKYYSTSSHGNWGSWGSWGQCSRSCGGGVQFAYRHCNNPAPRNNGRYCTGKRAIYRSCSLMPCPPNGKSFRHEQCEAKNGYQSDAKGVKTFVEWVPKYAGVLPADVCKLTCRAKGTGYYVVFSPKVTDGTECRLYSNSVCVRGKCVRTGCDGIIGSKLQYDKCGVCGGDNSSCTKIVGTFNKKSKGYTDVVRIPEGATHIKVRQFKAKDQTRFTAYLALKKKNGEYLINGKYMISTSETIIDINGTVMNYSGWSHRDDFLHGMGYSATKEILIVQILATDPTKPLDVRYSFFVPKKSTPKVNSVTSHGSNKVGSHT
notes: ADAMTS-5 lacking the C-terminal thrombospondin domain
B4: FLAG-tagged ADAMTS-4 lacking the C-terminal spacer domain (ADAMTS4-2) (domain or fragment, UniProt O75173 213-685, looked up)
chain: FASLSRFVETLVVADDKMAAFHGAGLKRYLLTVMAAAAKAFKHPSIRNPVSLVVTRLVILGSGEEGPQVGPSAAQTLRSFCAWQRGLNTPEDSDPDHFDTAILFTRQDLCGVSTCDTLGMADVGTVCDPARSCAIVEDDGLQSAFTAAHELGHVFNMLHDNSKPCISLNGPLSTSRHVMAPVMAHVDPEEPWSPCSARFITDFLDNGYGHCLLDKPEAPLHLPVTFPGKDYDADRQCQLTFGPDSRHCPQLPPPCAALWCSGHLNGHAMCQTKHSPWADGTPCGPAQACMGGRCLHMDQLQDFNIPQAGGWGPWGPWGDCSRTCGGGVQFSSRDCTRPVPRNGGKYCEGRRTRFRSCNTEDCPTGSALTFREEQCAAYNHRTDLFKSFPGPMDWVPRYTGVAPQDQCKLTCQAQALGYYYVLEPRVVDGTPCSPDSSSVCVQGRCIHAGCDRIIGSKKKFDKCMVCGGDGSGC
notes: ADAMTS-4 lacking the C-terminal spacer domain
B5: TIMP-1 (natural protein)
chain: not shown
notes: also called T1
B6: MMP-1ΔC/TIMP-3 complex (complex)
chain 1: FVLTEGNPRWEQTHLTYRIENYTPDLPRADVDHAIEKAFQLWSNVTPLTFTKVSEGQADIMISFVRGDHRDNSPFDGPGGNLAHAFQPGPGIGGDAHFDEDERWTNNFREYNLHRVAAHELGHSLGLSHSTDIGALMYPSYTFSGDVQLAQDDIDGIQAIYGRSQNPVQP
chain 2: CTCSPSHPQDAFCNSDIVIRAKVVGKKLVKEGPFGTLVYTIKQMKMYRGFTKMPHVQYIHTEASESLCGLKLEVNKYQYLLTGRVYDGKMYTGLCNFVERWDQLTLSQRKGLNYRYHLGCNCKIKSCYYLPCFVTSKNECLWTDMLSNFGYPGYQSKHYACIRQKGGYCSWYRGWAPPDKSIINATDP
notes: catalytic domain of human MMP-1; pro-domain removed with APMA; as m8; as m3
B7: ADAMTS4-2/TIMP-3 complex (complex)
chain 1: B4 chain
chain 2: B6 chain 2
notes: ADAMTS-4 lacking the C-terminal spacer domain; as m16; as m3; also called [35S]TIMP-3/ADAMTS4-2
B8: ADAM-10/TIMP-3 complex (complex)
chain 1: TTSAEKNTCQLYIQTDHLFFKYYGTREAVIAQISSHVKAIDTIYQTTDFSGIRNISFMVKRIRINTTADEKDPTNPFRFPNIGVEKFLELNSEQNHDDYCLAYVFTDRDFDDGVLGLAWVGAPSGSSGGICEKSKLYSDGKKKSLNTGIITVQNYGSHVPPKVSHITFAHEVGHNFGSPHDSGTECTPGESKNLGQKENGNYIMYARATSGDKLNNNKFSLCSIRNISQVLEKKRNNCFVESGQPICGNGMVEQGEECDCGYSDQCKDECCFDANQPEGRKCKLKPGKQCSPSQGPCCTAQCAFKSKSEKCRDDSDCAREGICNGFTALCPASDPKPNFTDCNRHTQVCINGQCAGSICEKYGLEECTCASSDGKDDKELCHVCCMKKMDPSTCASTGSVQWSRHFSGRTITLQPGSPCNDFRGYCDVFMRCRLVDADGPLARLKKAIFSPELYENIAE
chain 2: B6 chain 2
modifications: 1:1 non-covalent complex; ADAM10 ectodomain (R&D Systems) taken by convention as mature extracellular region without prodomain (catalytic Zn2+), limits not given; TIMP-3 C-terminal/FLAG tag left …
B9: ADAMTS5-2/TIMP-3 complex (complex)
chain 1: B3 chain
chain 2: B6 chain 2
notes: ADAMTS-5 lacking the C-terminal thrombospondin domain; as m17; as m3; also called [35S]TIMP-3/ADAMTS5-2

The target in this experiment is T1, low-density lipoprotein receptor-related protein 1 (LRP-1) (UniProt Q07954 20-4544).
T1 construct: low-density lipoprotein receptor-related protein 1 (LRP-1), bought from Biomac; source: bought: Biomac (Leipzig, Germany)
T1 sequence (Q07954 20-4544): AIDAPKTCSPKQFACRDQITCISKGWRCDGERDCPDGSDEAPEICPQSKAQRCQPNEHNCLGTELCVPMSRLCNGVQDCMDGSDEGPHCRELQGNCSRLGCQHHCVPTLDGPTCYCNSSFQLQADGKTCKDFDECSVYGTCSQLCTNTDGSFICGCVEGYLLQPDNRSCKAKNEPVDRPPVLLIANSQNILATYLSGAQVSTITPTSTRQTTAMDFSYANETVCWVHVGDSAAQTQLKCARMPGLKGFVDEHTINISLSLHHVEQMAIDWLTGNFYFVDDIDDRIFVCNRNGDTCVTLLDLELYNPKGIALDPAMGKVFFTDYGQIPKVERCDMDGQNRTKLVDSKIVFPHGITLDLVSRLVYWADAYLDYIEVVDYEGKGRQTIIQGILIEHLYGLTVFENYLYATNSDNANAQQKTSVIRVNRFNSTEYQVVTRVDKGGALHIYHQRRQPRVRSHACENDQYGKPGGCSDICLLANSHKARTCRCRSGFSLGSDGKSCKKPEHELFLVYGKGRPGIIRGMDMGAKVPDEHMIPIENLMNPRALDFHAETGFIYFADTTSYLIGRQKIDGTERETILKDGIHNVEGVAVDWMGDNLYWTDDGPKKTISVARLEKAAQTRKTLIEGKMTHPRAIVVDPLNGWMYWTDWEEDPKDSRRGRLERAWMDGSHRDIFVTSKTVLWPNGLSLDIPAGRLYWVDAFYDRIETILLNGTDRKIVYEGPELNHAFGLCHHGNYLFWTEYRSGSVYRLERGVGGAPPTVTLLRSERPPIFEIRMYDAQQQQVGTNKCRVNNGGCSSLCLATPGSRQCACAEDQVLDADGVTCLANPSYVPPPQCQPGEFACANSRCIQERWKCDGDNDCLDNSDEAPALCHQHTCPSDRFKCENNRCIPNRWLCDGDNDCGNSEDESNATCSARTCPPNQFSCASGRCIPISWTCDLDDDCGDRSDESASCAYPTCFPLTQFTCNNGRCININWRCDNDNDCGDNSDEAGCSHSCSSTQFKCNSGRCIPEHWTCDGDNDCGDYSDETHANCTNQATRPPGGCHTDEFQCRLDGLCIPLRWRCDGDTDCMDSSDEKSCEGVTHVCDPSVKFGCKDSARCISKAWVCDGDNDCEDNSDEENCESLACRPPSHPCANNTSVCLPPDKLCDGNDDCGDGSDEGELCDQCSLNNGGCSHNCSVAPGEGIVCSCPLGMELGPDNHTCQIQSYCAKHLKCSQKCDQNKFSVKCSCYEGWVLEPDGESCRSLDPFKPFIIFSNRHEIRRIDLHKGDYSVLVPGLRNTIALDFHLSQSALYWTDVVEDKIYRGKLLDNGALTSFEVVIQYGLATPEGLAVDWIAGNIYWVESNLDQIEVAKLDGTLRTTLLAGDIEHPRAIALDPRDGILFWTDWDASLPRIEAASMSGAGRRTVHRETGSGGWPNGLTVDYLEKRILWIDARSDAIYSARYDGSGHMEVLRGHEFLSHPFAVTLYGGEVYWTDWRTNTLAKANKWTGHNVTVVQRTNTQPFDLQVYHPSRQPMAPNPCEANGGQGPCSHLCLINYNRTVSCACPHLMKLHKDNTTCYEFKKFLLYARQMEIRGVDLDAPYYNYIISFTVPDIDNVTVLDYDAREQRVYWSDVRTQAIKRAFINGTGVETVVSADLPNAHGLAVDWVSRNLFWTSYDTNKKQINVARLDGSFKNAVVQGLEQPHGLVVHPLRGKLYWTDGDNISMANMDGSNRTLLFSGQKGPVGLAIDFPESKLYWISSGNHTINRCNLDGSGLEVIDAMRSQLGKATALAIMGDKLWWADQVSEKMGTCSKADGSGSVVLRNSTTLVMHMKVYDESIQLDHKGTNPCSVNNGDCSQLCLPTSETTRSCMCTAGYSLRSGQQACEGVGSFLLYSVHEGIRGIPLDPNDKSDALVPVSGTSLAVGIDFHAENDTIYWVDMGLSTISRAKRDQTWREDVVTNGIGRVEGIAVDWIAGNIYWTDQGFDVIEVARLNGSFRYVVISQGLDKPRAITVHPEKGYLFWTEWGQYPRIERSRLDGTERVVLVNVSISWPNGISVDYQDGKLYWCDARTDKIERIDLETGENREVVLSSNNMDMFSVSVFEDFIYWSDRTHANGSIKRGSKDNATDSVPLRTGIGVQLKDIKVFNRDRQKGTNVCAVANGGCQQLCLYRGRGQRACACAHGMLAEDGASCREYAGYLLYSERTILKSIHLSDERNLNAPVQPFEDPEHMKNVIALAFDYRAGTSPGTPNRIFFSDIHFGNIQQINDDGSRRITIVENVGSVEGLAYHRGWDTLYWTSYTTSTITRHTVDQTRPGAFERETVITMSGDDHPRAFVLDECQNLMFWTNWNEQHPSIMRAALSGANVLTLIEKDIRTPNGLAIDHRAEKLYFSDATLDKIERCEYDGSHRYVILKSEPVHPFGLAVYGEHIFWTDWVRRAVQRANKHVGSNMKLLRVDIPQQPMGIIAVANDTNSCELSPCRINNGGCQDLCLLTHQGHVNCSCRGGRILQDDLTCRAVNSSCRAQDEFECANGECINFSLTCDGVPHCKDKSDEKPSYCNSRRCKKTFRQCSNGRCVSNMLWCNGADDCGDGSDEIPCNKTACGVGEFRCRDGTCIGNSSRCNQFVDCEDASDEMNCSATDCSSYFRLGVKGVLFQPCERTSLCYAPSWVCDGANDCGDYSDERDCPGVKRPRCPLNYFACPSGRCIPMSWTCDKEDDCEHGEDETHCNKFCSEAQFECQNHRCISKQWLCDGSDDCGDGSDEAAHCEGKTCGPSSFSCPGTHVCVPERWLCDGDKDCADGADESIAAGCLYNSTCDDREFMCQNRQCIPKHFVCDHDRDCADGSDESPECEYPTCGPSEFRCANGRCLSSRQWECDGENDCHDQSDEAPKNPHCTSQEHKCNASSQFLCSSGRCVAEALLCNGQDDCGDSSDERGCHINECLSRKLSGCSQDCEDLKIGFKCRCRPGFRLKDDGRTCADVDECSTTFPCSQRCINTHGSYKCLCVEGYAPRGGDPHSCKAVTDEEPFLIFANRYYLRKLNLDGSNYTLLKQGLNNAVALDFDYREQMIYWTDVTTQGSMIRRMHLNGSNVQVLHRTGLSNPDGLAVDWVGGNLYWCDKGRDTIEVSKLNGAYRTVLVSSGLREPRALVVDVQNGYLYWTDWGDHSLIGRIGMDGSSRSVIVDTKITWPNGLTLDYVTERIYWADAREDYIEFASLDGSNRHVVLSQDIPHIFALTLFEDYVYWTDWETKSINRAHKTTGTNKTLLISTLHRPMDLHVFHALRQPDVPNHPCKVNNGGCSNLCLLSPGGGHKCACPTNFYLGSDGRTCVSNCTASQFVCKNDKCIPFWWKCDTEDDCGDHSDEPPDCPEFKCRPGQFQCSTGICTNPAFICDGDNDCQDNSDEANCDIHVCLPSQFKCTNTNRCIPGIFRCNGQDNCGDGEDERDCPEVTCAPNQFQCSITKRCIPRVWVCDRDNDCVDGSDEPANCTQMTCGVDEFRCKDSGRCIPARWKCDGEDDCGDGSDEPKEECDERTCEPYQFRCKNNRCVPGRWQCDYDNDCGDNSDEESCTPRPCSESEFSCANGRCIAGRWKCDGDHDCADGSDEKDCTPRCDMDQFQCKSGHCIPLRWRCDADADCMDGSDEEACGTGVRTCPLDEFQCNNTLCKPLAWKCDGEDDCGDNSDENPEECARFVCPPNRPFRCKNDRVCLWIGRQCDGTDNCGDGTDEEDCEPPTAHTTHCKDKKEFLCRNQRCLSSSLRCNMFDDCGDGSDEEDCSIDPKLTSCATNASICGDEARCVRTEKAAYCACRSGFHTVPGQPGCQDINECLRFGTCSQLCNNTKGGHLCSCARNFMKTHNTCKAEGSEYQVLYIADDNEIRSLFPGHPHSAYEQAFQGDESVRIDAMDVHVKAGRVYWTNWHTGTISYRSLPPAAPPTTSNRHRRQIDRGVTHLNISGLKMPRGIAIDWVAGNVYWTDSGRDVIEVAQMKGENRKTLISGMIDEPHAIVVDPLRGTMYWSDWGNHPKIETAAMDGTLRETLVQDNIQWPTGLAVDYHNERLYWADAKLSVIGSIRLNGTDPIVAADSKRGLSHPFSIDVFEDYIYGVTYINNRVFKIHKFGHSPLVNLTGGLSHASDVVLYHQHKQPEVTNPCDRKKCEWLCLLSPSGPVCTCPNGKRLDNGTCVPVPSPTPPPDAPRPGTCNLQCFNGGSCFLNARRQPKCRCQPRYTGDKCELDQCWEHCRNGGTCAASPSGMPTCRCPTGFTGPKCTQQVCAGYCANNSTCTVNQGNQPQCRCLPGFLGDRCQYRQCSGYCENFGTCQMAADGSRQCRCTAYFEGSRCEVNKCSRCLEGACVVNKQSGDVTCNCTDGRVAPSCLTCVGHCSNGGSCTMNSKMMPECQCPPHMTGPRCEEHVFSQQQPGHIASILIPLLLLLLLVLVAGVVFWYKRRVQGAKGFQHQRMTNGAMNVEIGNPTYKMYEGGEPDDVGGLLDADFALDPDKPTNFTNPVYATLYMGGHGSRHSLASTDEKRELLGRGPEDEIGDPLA
Kind of experiment: SPR; BIAcore T200; LRP-1 immobilised on a CM5 chip by amine coupling (3000 RU); 25 °C; 150 mM NaCl, 10 mM CaCl2, 50 mM Tris-HCl, 0.01% Tween-20, pH 7.5; 30 μl/min; ligands or pre-formed complexes injected; one-site binding model; triplicate. Particulars: both partners purified. (In general: In SPR one partner is held on a chip, and binding of the other changes the refractive index at the surface.)
By Kd is commonly meant the constant that tells how readily two partners part at equilibrium. Low values mean higher affinity, high ones lower affinity. The koff is the first-order rate constant of dissociation. Higher therefore signals a short-lived complex. One may read the kon as the rate constant with which the complex forms. Read a low kon as slow association. On to B1, for which binding was characterised by a dissociation constant (Kd) of 5.65 nM, the koff is 0.00321 s⁻¹ and the kon worked out at 567000 M⁻¹ s⁻¹.

As for B2, the dissociation constant (Kd) was found to be 0.6 nM, the koff amounted to 0.00419 s⁻¹ and the on-rate (kon) amounted to 6.88e+06 M⁻¹ s⁻¹.

As for B3, the Kd was 2.27 nM, the koff was determined as 0.00678 s⁻¹ and the on-rate constant (kon) stood at 2.99e+06 M⁻¹ s⁻¹.

Regarding B4, the Kd came out at 77.6 nM, the koff turned out to be 0.00381 s⁻¹ and the kon is 49000 M⁻¹ s⁻¹.

In turn, B5 yielded a Kd of 30.9 nM, a koff of 0.0109 s⁻¹ and a kon of 353000 M⁻¹ s⁻¹.

With B6, the affinity, expressed as Kd, was 6.42 nM; the koff is 0.00254 s⁻¹; the kon worked out at 396000 M⁻¹ s⁻¹.

As for B7, binding was characterised by a dissociation constant (Kd) of 3.3 nM, the koff amounted to 0.00217 s⁻¹ and the kon came to 659000 M⁻¹ s⁻¹.

In the case of B8, the Kd came out at 8.67 nM, the koff was determined as 0.00386 s⁻¹ and the kon worked out at 446000 M⁻¹ s⁻¹.

In turn, B9 yielded an equilibrium dissociation constant (Kd) of 4.5 nM, a koff of 0.00206 s⁻¹ and a kon of 457000 M⁻¹ s⁻¹.
